{"source": "patent US10106577B2", "about": "“Agonists of neurotrophin receptors and their use as medicaments” (BIONURE FARMA, S.L., priority 2010, dated 2018)", "key": {"NSC-34 cells": {"tested_on": "NSC-34 cells", "assay": "In vitro model of ALS, serum deprivation of motoneuron-like cells (MTT)", "format": "cell-based, mouse", "details": "BDNF 20 ng/ml; serum deprivation 48 h", "method": "Mouse motoneuron-like cells NCS-34 were cultured in DMEM (Gibco) supplemented with 10% heat inactivated FBS and 1% penicillin/streptomycin. The cell culture was maintained in a humidified atmosphere of 95% air and CO2 at 37° C.\nThe nutritional deprivation stress in motorneurons was conducted as described previously in Masahito T. et al., J. Neuropathol. Exp. Neurol. 65(8):816-825 (2006). To assess the effect of trophic stress condition on ALS, the presence of apoptosis was investigated using serum deprivation. NSC-34 cells were seeded in 24-well poly-lysinated plates at 30,000 cells/well and preincubated for 24 h in DMEM plus 10% FBS with various doses of G79, G80, and G81 (20 ng/ml, 100 ng/ml, 2 μg/ml, 20 μg/ml, 50 μg/ml), and G-CSF (2 μg/ml) or BDNF (20 ng/ml) which both were used as positive controls (Masahito T. et al., ibid; Elliot J. L., Neurobiology of Disease 6:310-320 (1999)). Then, the medium was removed and replaced with fresh DMEM without FBS. After 48 h, cell viability was assayed by MTT assay, as described previously."}, "SH-SY5Y cells": {"tested_on": "SH-SY5Y cells", "assay": "Parkinson's disease in vitro model (MPTP stress, MTT)", "format": "cell-based, human", "details": "MPTP 100 μM, 24 hrs; pre-treated 3 hours; BDNF 20 ng/ml", "method": "The human neuroblastoma cell line SH-SY5Y was maintained in culture with 50% Ham's F12 medium and 50% EMEM medium, supplemented with 10% FBS, […] L-glutamine and 1% penicillin/streptomycin. The cell culture was maintained in a humidified atmosphere of 95% air and CO2 at 37° C.\nThe SH-SY5Y cells after differentiation to neuronal phenotype with retinoic acid, were pre-treated for 3 hours with the test compounds at different concentrations (20 ng/ml, 100 ng/ml, 2 μg/ml, 20 μg/ml and 50 μg/ml) or BDNF (20 ng/ml) as a positive control. Then 1-methyl-4-phenyl-1,2,3,6-tetrahydropyridine (MPTP) (100 μM) was added and incubated for 24 hrs. The number of surviving cells was determined the day after by 3-(4,5-dimethylthiazol-2-yl)-2,5-diphenyltetrazolium bromide (MTT) assay."}, "ATF-2": {"tested_on": "ATF-2", "assay": "Luminex signalling assay in SH-SY5Y", "format": "cell-based, human", "details": "G79 100 ng/ml and 20 μg/ml, BDNF 20 ng/ml; 30 min, 1 h, 2 h, 6 h", "text": "(§1) The human neuroblastoma cell line SH-SY5Y was used to perform Luminex signalling assays using the 10-Plex MAPK/SAPK Signaling Kit-Phosphoprotein (Millipore). This cell line expresses the TrkB receptor and the MAPK/SAPK signalling pathway is typically activated by the tyrosinkinase receptors. The phosphoprotein antibodies included into the kit are the following: ERK/MAP kinase (Thr185/Tyr187); STAT-1 (Tyr701); JNK (Thr183/Tyr185); MEK-1 (Ser212); ATF-2 (Thr69/71); p53 (Ser15); HSP27 (Ser78); c-Jun (Ser73); p38 (Thr180/Tyr182), p70 S6 kinase (Thr412); IkBα (Ser32) (purchased from Millipore).\n(§2) The cells were propagated and then seeded into 24-well plates (30.000 cell/well). After 24 hours, the cells were treated with two different concentrations of NGF-receptor agonist G79: 100 ng/ml and 20 μg/ml. After adding G79 into the medium, the cells were collected in the lysis buffer of the kit at the following time points: 30 min, 1 h, 2 h, and 6 h. The assay was performed in this way to assess both time and dose effects comparing the treated samples with the untreated cells used as negative controls (unstimulated SH-SY5Y cells). BDNF was used as positive control at the concentration 20 ng/ml, which is the best working concentration known in literature. In the Luminex plate, each sample was added into a well in duplicate. After adding all the samples, the specific positive and negative controls of phosphorilation, included in the Luminex kit, were added. The assay buffer was also added in duplicate, as a background controls.\n(§3) In the circles are the activated factors, while in the grey circles are the tested factors. Its effects of the SY-SY5Y cell line in the phosphorilation of several pathways were assessed using xMAP assay from Luminex. […] The levels of activation are expressed as Median Fluorescence Intensity (MFI)."}, "JNK": {"tested_on": "JNK", "assay": "Luminex signalling assay in SH-SY5Y", "format": "cell-based, human", "details": "G79 100 ng/ml and 20 μg/ml, BDNF 20 ng/ml; 30 min, 1 h, 2 h, 6 h", "text": "as §1, §2, §3"}, "STAT-1": {"tested_on": "STAT-1", "assay": "Luminex signalling assay in SH-SY5Y", "format": "cell-based, human", "details": "G79 100 ng/ml and 20 μg/ml, BDNF 20 ng/ml; 30 min, 1 h, 2 h, 6 h", "text": "as §1, §2, §3"}, "HSP-27": {"tested_on": "HSP-27", "assay": "Luminex signalling assay in SH-SY5Y", "format": "cell-based, human", "details": "G79 100 ng/ml and 20 μg/ml, BDNF 20 ng/ml; 30 min, 1 h, 2 h, 6 h", "text": "as §1, §2, §3"}}, "data": [{"molecule": "BDNF: brain-derived neurotrophic factor, neurotrophin used as positive control (protein, UniProt P23560 19-247, looked up) Neurotrophic factor BDNF …: APMKEANIRGQGGLAYPGVRTHGTLESVNGPKAGSRGLTSLADTFEHVIEELLDEDQKVRPNEENNKDADLYTSRVMLSSQVPLEPPLLFLLEEYKNYLDAANMSMRVRRHSDPARRGELSVCDSISEWVTAADKKTAVDMSGGTVTVLEKVPVSKGQLKQYFYETKCNPMGYTKEGCRGIDKRHWNSQCRTTQSYVRALTMDSKKRIGWRFIRIDTSCVCTLTIKRGR", "values": [{"measurement": "cell viability, percentage relative to the control without stress", "setting": "NSC-34 cells", "result": "80.62±5.2", "unit": "%"}, {"measurement": "protection of neuronal cells against MPTP (surviving cells, MTT)", "setting": "SH-SY5Y cells", "result": "significant protection of neuronal cells"}, {"measurement": "ATF-2 phospho-activation (MFI) compared to unstimulated control", "setting": "ATF-2", "result": "significant ATF-2 activation at 2 h after treatment"}, {"measurement": "JNK phospho-activation (MFI) compared to unstimulated control", "setting": "JNK", "result": "significant JNK activation at 2 h after treatment"}, {"measurement": "STAT-1 phospho-activation (MFI) compared to unstimulated control", "setting": "STAT-1", "result": "did not activate STAT-1"}, {"measurement": "HSP-27 phospho-activation (MFI) compared to unstimulated control", "setting": "HSP-27", "result": "does not activate HSP-27"}]}]}
